Measurements reported in patent US20130336885A1 (Genentech, published 2013).
Each block holds one binder with its values, some of them ahead of it.

Legend:
[1] = biological target: T1, gD epitope-tagged mouse LgR5 expressed on stably transfected 293 cells (mouse, UniProt Q9Z1P4 22-907); test: Scatchard analysis, competition of 125I-labeled with unlabeled antibody on 293 cells stably expressing mouse LgR5
T1 construct: also called gD-tagged mouse LgR5
T1 sequence: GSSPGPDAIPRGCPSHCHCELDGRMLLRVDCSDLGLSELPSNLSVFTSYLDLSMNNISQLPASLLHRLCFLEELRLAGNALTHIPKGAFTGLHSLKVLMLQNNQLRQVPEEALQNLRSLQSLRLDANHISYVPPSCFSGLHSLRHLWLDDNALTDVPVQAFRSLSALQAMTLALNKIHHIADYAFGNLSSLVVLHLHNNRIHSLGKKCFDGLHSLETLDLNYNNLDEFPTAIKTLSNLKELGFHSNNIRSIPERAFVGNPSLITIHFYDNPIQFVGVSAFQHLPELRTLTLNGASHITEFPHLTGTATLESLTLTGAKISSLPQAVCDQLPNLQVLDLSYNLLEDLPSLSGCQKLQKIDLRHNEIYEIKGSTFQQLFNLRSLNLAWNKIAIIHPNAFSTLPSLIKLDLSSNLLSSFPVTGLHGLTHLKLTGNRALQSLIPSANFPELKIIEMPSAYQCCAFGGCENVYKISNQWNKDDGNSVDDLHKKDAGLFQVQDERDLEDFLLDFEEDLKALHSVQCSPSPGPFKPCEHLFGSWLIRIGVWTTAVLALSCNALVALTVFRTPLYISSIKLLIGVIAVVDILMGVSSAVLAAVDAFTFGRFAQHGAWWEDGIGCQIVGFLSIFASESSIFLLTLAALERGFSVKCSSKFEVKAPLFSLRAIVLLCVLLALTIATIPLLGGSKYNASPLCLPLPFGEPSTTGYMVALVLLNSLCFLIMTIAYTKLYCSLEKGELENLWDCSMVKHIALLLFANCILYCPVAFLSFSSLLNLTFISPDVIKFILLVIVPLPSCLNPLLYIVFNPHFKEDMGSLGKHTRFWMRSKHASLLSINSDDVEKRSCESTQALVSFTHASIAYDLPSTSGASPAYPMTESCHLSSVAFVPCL
Description: Scatchard analysis was performed following standard procedures (Holmes et al., Science 256:1205-1210 (1992)) to determine the relative binding affinities of YW353, ch8E11 and hu8E11v2 antibodies.
Anti-LgrS antibodies were [I¹²⁵] labeled using the indirect Iodogen method. […] Competition assay mixtures of 50 μL volume containing a fixed concentration of [I¹²⁵] labeled antibody and decreasing concentrations of serially diluted, unlabeled antibody were placed into 96-well plates. 293 cells stably expression human, rat, or mouse LgrS were cultured in growth media at 37° C. in 5% CO₂. Cells were detached from the flask using Sigma Cell Dissociation Solution and were washed with binding buffer, which consisted of Dulbecco's Modified Eagle Medium (DMEM) with 2% fetal bovine serum (FBS), 50 mM HEPES (pH 7.2) and 0.1% sodium azide. The washed cells were added to the 96 well plates at a density of 250,000 cells in 0.2 mL of binding buffer. The final concentration of the labeled antibody in each well was 200 μM. […] The filters were counted on a Wallac Wizard 1470 gamma counter (PerkinElmer Life and Analytical Sciences Inc.; Wellesley, Mass.). The binding data was evaluated using NewLigand software (Genentech), which uses the fitting algorithm of Munson and Robard to determine the binding affinity of the antibody (Munson and Robard 1980)

[2] = biological target: T2, gD epitope-tagged rat LgR5 expressed on stably transfected 293 cells (rat, UniProt D4AC13 22-907); test: FACS on 293 cells stably transfected with gD epitope-tagged LgR5, 10 ug/ml antibody, R-Phycoerythrin goat anti-human detection
T2 construct: also called gD-tagged rat LgR5
T2 sequence: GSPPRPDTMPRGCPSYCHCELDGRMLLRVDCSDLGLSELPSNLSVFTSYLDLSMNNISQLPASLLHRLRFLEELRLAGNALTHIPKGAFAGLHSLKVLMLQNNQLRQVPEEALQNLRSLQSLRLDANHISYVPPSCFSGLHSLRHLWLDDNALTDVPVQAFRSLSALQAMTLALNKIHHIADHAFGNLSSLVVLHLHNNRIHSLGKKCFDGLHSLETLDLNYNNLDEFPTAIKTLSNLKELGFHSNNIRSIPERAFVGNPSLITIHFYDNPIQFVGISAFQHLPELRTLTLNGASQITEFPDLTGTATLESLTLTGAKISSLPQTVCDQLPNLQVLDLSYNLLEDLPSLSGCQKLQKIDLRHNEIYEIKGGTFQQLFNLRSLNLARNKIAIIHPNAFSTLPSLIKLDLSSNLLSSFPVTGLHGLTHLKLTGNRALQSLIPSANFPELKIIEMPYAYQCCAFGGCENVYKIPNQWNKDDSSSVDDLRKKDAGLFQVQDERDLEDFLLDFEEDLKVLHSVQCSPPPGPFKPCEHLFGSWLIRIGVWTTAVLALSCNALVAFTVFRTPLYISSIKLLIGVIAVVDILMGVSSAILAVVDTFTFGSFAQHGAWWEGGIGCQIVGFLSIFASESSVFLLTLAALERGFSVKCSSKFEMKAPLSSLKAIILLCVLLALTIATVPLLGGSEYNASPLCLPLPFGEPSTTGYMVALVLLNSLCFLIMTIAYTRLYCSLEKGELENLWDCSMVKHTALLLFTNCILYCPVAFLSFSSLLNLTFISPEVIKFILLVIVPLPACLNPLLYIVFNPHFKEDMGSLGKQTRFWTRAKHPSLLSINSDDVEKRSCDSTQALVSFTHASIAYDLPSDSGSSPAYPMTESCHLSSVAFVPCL
Description: (§1) Monoclonal antibodies were tested to determine if they cross-react with LgR5 from species other than human. […] Residues that are identical among all four species are indicated by asterisks (*). […] YW353 antibody binds human and cynomolgus monkey LgR5, but not rat or mouse LgR5. Ch8E11 and hu8E11.v2 antibodies bind all four species of LgR5, although binding to rat LgR5 is not as strong as binding to human, cynomolgus monkey, or mouse LgR5. 2H6 antibody binds to human and mouse LgR5, and was not tested for binding to cynomolgus monkey or rat LgR5.

[3] = biological target: T2, gD epitope-tagged rat LgR5 expressed on …; test: FACS on stably transfected 293 cells, detected with R-Phycoerythrin goat anti-human antibody
Description: as §1

[4] = biological target: T1, gD epitope-tagged mouse LgR5 expressed …; test: as above
Description: as §1

Kd [1]: 0.6 nM
B1: humanized monoclonal antibody 8E11.v2 (antibody, human IgG1, kappa, V domains shown)
VH: EVQLVQSGAEVKKPGASVKVSCKASGYTFSAYWIEWVRQAPGQGLEWIGEILPGSDSTDYNEKFKVRATFTSDTSTSTVYLELSSLRSEDTAVYYCARGGHYGSLDYWGQGTLVTVSS
VL: DIVMTQSPDSLAVSLGERATINCRASESVDNYGNSFMHWYQQKPGQPPKLLIYLASNLESGVPDRFSGSGSGTDFTLTISSLQAEDVAVYYCQQNYEDPFTFGQGTKVEIKR
notes: It was assessed as an IgG; also called hu8E11.v2; hu8E11v2

binding result [2]: binds
B2: chimeric monoclonal antibody 8E11 (antibody, human IgG1, V domains shown)
VH: QVQLQQSGTELMKPGASVKISCKATGYTFSAYWIEWIKQRPGHGLEWIGEILPGSDSTDYNEKFKVKATFSSDTSSNTVYIQLNSLTYEDSAVYYCARGGHYGSLDYWGQGTTLKVSS
VL: NIVLTQSPASLAVSLGQRATISCRASESVDNYGNSFMHWYQQKPGQPPKLLIYLASNLESGVPARFSGSGSRTDFTLTIDPVEADDAATYYCQQNYEDPFTFGSGTKVEIKR
notes: also called ch8E11; chimeric 8E11

binding result [3]: no binding (tested: 10 µg/ml)
binding result [4]: no binding (tested: 10 µg/ml)
B3: human antibody YW353 (antibody, human IgG1, kappa, V domains shown)
VH: EVQLVESGGGLVQPGGSLRLSCAASGFTFTSYSISWVRQAPGKGLEWVAEIYPPGGYTDYADSVKGRFTISADTSKNTAYLQMNSLRAEDTAVYYCAKARLFFDYWGQGTLVTVSS
VL: DIQMTQSPSSLSASVGDRVTITCRASQDVSTAVAWYQQKPGKAPKLLIYSASFLYSGVPSRFSGSGSGTDFTLTISSLQPEDFATYYCQQSYTTPPTFGQGTKVEIKR
notes: also called huYW353
